According to US20210386836:

Target: C3a, P01024
Sequence (P01024 672-748): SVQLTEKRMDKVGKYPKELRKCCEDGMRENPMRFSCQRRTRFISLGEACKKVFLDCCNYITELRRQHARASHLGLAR

B1: PrtISS-HT (protein)
chain: MRKKWVATAIIALASGSTVFLSQTSSVEAAIGETSVQNVKVSVAKNESDSQKFNNSQNLEQKTPQAAAANQNGSQVQNDHTETQLQNQQTTQSQVTQAHTEENNASSIPEPANQADHVKGNVQSAWDQGYKGQNTVVAVIDSGADTSHKDFQTMPSNPKLKQEDVQSKIDQQGYGKYVNEKFPYVYNYADRDNDYIKSDDNNQXNDSPHGQHVSGIIAADGHPEGDQQYVVGVAPEAQLMQLRVFGQFSDEKTDDVARAIYDATNLGADVIQMSLGQGVADQQLTNIEQKAVQYAIDHGVFVSISASNNGNSASVDNPSKVTAKGYGSGSEAGNYEPLNSGTVANPGASKNALTVAAETSGTGKDSDMASFSSWGPLSDFSLKPDLSAPGYQVVSTVNDNQYQTMSGTSMAGPFAAGSAALVIQRLKQTNPELKGAELVAATKALLMNSAKVQTQNGYTTPVSPRRQGAGQIDVGAATANPVYVTAADGTSSLSLRQVDEKTTFTLTFHNLTDQEQSYSFNDLGGGYTEQRDPDSGVFHEVQLAGAHVNGVGNFTLAPKEVKDLQYTLDLQGLNKNQPVEGWLHFTNDKDKSTVVVPYLAYYGDLTSENVFDQNANEEKPDIQGNRFVNENNYPLGVTDQESLKQLVNVDSDYNWQEVAKLYESGKVAFSPNDDHQSDLIKPYAYLKQNVKDLKVEILDAKGNVVRVVSDVQGVDKSYDESGVTKDASLSVSMRDNPDAFEWDGKVYDTKTGQMVTAPDGQYTYRFVATLWNEGPNQKQTADFPVVVDTQAPSLSVKYDSATHTLSGNYEDKGAGFTDYSYVTVQVNDKVFGYKLNEGESGFDNSEKTKGHFNFTLSSDALDALSGSLNKVSVTLSDVANNTTVKTVDVPAVKDQPAVSVWNATEGVEFNKNSKDYNKENDTYTLYGSAAQDFYLNGALVQVRDGKYEVPVKTTTQDLVFSTDQAGKNVLKSFTTFTPKAFFNWQNVDGFDGNFGVNIYSVKTNDPNNAVVQAAVPLGKNVKAYAQDYFTGEVYKGQVENGVATFHVHTSINQGEDGIFKRALLTGWSEVDGPAYNDKQVTSKAGVASSNHLGVYYTTDKVNRKVYTDRADLGVDVQDEAADLSSFGPTAYPGHALADLTTRTDPNPAIHFDYLNDNDTTRFGQNAVTDGYYDSVTKKFTVTGHVDPEVKSLTVLGDSSDENAPQNQVKLGKDGKFSFSFTTENVGQRPVAYIYTDQNGQKVRGTLNVVLDTVAPTLNVDQVNGNELEVKTNNPLFKLSGVVNDNLDGYRLYVNGNNIYREFLNSGYNKLAGLNTDGTDVNPYGPHNFEESFNLNDDNNQPTTHVFTIYVVDQVGNKVEKKIAVNYDPDYVAPRHHHHHH
modifications: not fully specified; X: residue not identified in the source
- proteolytic degradation assay (SDS-PAGE): displayed activity against hC3a
